Test results as given in patent publication US20130030156A1 (Merck Sharp & Dohme, published 2013).

Molecular target: T1, human ILT5 on the surface of human peripheral blood cells (human, UniProt O75022 24-631)
T1 construct: whole, on cells; Endogenous ILT5 on primary human cells; also called surface ILT5; hILT5
Experiment: flow cytometry, TRX585 staining of human PBMCs
Description: The latter plots show the levels of two fluorescent parameters (i.e., fluorescent antibodies) on various cell subpopulations, quantitate the proportions of cells displaying these parameters, and indicate the frequency of cells present at each point in the plot. Here, peripheral blood mononuclear cells (PBMCs) from a healthy human donor were stained with the TRX585 antibody as well as antibodies specific for the indicated cell subset. In FIG. 1A, plots depict ILT5 (TRX585) expression by gated CD56⁻CD3⁺CD4⁺ or CD56⁻CD3⁺CD8⁺ T cells. In FIG. 1B, PBMCs were stained as in (A) and subsequently stained for intracellular Foxp3. Plots show ILT5 expression by gated CD56⁻CD3⁺CD4⁺Foxp3⁺ or CD56⁻ CD3⁺CD4⁺Foxp3⁻ T cells. […] Percentages of gated cells and mean fluorescence intensity of the ILT5-staining of ILT5⁺ cells are depicted inside and above plots, respectively. […]
Peripheral blood mononuclear cells (PBMCs) from healthy human blood donors were stained with a murine monoclonal antibody (TRX585) comprising a heavy chain variable region comprising the amino acid sequence of SEQ ID NO: 2 or SEQ ID NO: 3, and a light chain variable region comprising the amino acid sequence of SEQ ID NO: 1. […] PBMCs were also stained with antibodies specific for defined hematopoietic cell lineages and analyzed for ILT5 expression by flow cytometry.

T1 sequence (O75022 24-631): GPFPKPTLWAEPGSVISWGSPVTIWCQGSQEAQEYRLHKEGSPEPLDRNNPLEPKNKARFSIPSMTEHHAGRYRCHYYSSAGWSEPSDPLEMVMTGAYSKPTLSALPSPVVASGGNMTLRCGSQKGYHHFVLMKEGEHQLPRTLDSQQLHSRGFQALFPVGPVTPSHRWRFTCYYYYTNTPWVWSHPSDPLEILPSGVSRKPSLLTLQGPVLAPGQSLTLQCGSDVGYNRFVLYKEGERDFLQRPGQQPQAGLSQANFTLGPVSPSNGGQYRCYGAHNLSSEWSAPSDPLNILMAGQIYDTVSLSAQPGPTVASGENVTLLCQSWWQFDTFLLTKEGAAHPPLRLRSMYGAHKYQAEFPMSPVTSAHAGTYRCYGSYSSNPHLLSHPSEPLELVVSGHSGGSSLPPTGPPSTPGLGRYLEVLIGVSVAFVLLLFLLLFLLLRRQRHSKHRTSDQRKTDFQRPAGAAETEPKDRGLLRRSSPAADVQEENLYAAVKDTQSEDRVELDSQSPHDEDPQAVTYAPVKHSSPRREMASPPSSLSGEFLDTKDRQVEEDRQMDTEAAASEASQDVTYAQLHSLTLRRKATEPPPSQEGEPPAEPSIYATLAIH

B1: TRX585 (8G6 mAb), mouse anti-human ILT5 monoclonal antibody (antibody, V domains shown)
VH: DVQLQESGPGLVKPSQSLFLTCSVTGYSISSSYYWNWIRQFPGNKLEWMGYISFDGSNNYNPSLKNRISITRDTSKNQFFLKLNSVTTEDTATYYCAREKENYYGSSFYYFDYWGLGTSLTVSS
VL: DIQMTQSPASLSVSVGETVTITCRASENIYSNLAWYQQKQGKSPQVLVYAATNLADGVPSRFSGSGSGTQFSLKINSLQSEDFGNYFCQHFWRIPWTFGGGTKLEIK
notes: Murine monoclonal antibody, IgG1, kappa, purified from hybridoma supernatant; also called TRX585 antibody; TRX585 mAb
  binding result: binds
